Measured values: patent US20090280138A1 (OXFORD BIOMEDICA UK, published 2009)

Experiments:
Experiment in all cases: iTopia iScore
[1] = biological target: T1, MHC class I molecule A*0101 (biotin (bound to streptavidin-coated plate))
T1 construct: also called A1; HLA-A1
Description: (§1) The 9 mers were tested for Peptide Binding, Off Rate and Affinity using iTopia Epitope Discovery System in accordance with the manufacturer's instructions. Briefly, 96 well microtitre plates coated with MHC molecules representing different MHC alleles are used to identify candidate peptides. […] Determinations are performed in duplicate using an ELISA plate reader and included allele specific positive controls.
(§2) Finally, multiparametric analysis is performed on the results from these assays and an iScore is generated. The iScore represents a measure of the overall quality of peptide-MHC binding, enabling candidate peptides to be ranked in order of binding quality and allowing rational prioritisation of peptides for functional cellular follow-up studies.

[2] = biological target: T2, MHC class I molecule B*0702 (biotin (bound to streptavidin-coated plate))
T2 construct: also called B7; HLA-B7
Description: as §1, §2

[3] = biological target: T3, MHC class I molecule A*0301 (biotin (bound to streptavidin-coated plate))
T3 construct: also called A3; HLA-A3
Description: as §1, §2

[4] = biological target: T4, MHC class I molecule A*0201 (biotin (bound to streptavidin-coated plate))
T4 construct: also called A2; HLA-A2
Description: as §1, §2

VSSSSPTSS [5T4 9-mer peptide 15 VSSSSPTSS]
iScore [1]: 0 | iScore [2]: 0 | iScore [3]: 0 | iScore [4]: 0

GGCSRGPAA [5T4 9-mer peptide 2 GGCSRGPAA]
iScore [1]: 0 | iScore [2]: 0.012 | iScore [3]: 0 | iScore [4]: 0.016

SASSFSSSA [5T4 9-mer peptide 19 SASSFSSSA]
iScore [1]: 0 | iScore [2]: 0 | iScore [3]: 0 | iScore [4]: 0.045

SPTSSASSF [5T4 9-mer peptide 17 SPTSSASSF]
iScore [1]: 0 | iScore [2]: 0.335 | iScore [3]: 0 | iScore [4]: 0

DGRLRLARL [5T4 9-mer peptide 7 DGRLRLARL]
iScore [1]: 0 | iScore [2]: 0.038 | iScore [3]: 0 | iScore [4]: 0

RLRLARLAL [5T4 9-mer peptide 8 RLRLARLAL]
iScore [1]: 0 | iScore [2]: 1 | iScore [3]: 0.027 | iScore [4]: 0.216

RGPAAGDGR [5T4 9-mer peptide 4 RGPAAGDGR]
iScore [1]: 0 | iScore [2]: 0 | iScore [3]: 0 | iScore [4]: 0.032

FSSSAPFLA [5T4 9-mer peptide 21 FSSSAPFLA]
iScore [1]: 0.023 | iScore [2]: 0 | iScore [3]: 0 | iScore [4]: 0.116

AGDGRLRLA [5T4 9-mer peptide 6 AGDGRLRLA]
iScore [1]: 0 | iScore [2]: 0 | iScore [3]: 0 | iScore [4]: 0.023

SSSPTSSAS [5T4 9-mer peptide 16 SSSPTSSAS]
iScore [1]: 0 | iScore [2]: 0 | iScore [3]: 0 | iScore [4]: 0

PAAGDGRLR [5T4 9-mer peptide 5 PAAGDGRLR]
iScore [1]: 0 | iScore [2]: 0 | iScore [3]: 0 | iScore [4]: 0

TSSASSFSS [5T4 9-mer peptide 18 TSSASSFSS]
iScore [1]: 0 | iScore [2]: 0 | iScore [3]: 0 | iScore [4]: 0.037

SSFSSSAPF [5T4 9-mer peptide 20 SSFSSSAPF]
iScore [1]: 0 | iScore [2]: 0 | iScore [3]: 0 | iScore [4]: 0.037

CSRGPAAGD [5T4 9-mer peptide 3 CSRGPAAGD]
iScore [1]: 0 | iScore [2]: 0 | iScore [3]: 0 | iScore [4]: 0

LALVLLGWV [5T4 9-mer peptide 11 LALVLLGWV]
iScore [1]: 0 | iScore [2]: 0 | iScore [3]: 0 | iScore [4]: 0.237

MPGGCSRGP [5T4 9-mer peptide 1 MPGGCSRGP]
iScore [1]: 0 | iScore [2]: 0 | iScore [3]: 0 | iScore [4]: 0

ARLALVLLG [5T4 9-mer peptide 10 ARLALVLLG]
iScore [1]: 0 | iScore [2]: 0 | iScore [3]: 0 | iScore [4]: 0.143

LVLLGWVSS [5T4 9-mer peptide 12 LVLLGWVSS]
iScore [1]: 0 | iScore [2]: 0 | iScore [3]: 0 | iScore [4]: 0.122

GWVSSSSPT [5T4 9-mer peptide 14 GWVSSSSPT]
iScore [1]: 0 | iScore [2]: 0 | iScore [3]: 0 | iScore [4]: 0.044

LLGWVSSSS [5T4 9-mer peptide 13 LLGWVSSSS]
iScore [1]: 0 | iScore [2]: 0 | iScore [3]: 0 | iScore [4]: 0.243
